Results as given in the supplement of paper PMC9170038.

Tested on: K4 kissing-loop RNA reporter
Assay: apparent KD of K4 kissing-loop reporter; higher = weaker reporter binding
Settings: Eterna round: R107; input ligand: FMN 200 uM
Experimental: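 RNA-MaP round R107: designed RNA switches with theophylline, tryptophan, arginine or FMN aptamers are transcribed on-chip within common flanks. They are titrated with a labelled K4 kissing-loop RNA reporter in RNA-MaP buffer (100 mM Tris pH 7.5, 80 mM KCl, 4 mM MgCl2), without ligand or with the indicated ligand. Median apparent KD per design.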
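Further: bound reporter read as fluorescence of individual clusters on recovered sequencing chips by microscopy, with normalized cluster intensities fitted with a binding model.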

Sequence | apparent KD of K4 kissing-loop reporter
AGAUAGGGCUGAAGGAGCGUCGGAGAAGAAAAGAAGAAAUCCAGUGAUGUUGGAUAAAUCCGACAGGUAGGUCGCAGUUUUAUGA [hbob_SS_Arginine_B_2t136] | 109 nM
AAGUGAUGUUGUAGUGAUGUUGUGAUGUUGCAGGAUAUAUAGUGAUGUAGAAGGGUAAGUACUGAUUUUUUUUUUGAGUGAUGUU [ccbyzrmullin] | 96.4 nM
UGAUUUAACUGAAGGAGCGGCAAUUGAUAAGUAAAUAUAGUGAUGUUAUAUAAGAUAGAGAGCCAGGUAGGUCGCAGAGGUAUUA [ExArgB.M] | 154 nM
AACGCCACCGCGGAUACCAGAGCCAGUGAUGUUGGAUCUGGAAAUUCGUGGGUAAGCUGGCUCCCUUGGCAGCUGCGGUUCUUUU [Tiisaron] | 134 nM
AUUAAUAACUGAGGAUAUCGAAAUUAUGUAGUGAUGUUACUGUAAAUUCAAAUUUUCAUUUCUUAACGAGAAGGCAGAAUAAUUA [JR_ExcFMNB_Sub012] | 173 nM
GUCAACCCAGCUGAUACCAGCCGGUUACGCACAUGCACACCCAGUGAUGUUGGGUAUUAGGGCCCUUGGCAGCAGCCUCUUGGCU [theeternabot_sameState_KL_Theo_B_30] | 165 nM
AUGAGGAACAGUGAUCCUACUCCAUGGGAAGGAGCGUAGGAUACUACAGGUAGGUCGCCCAGUGAUGUUGGGCGCGUGUUCUUGG [Ermaar] | 116 nM
UGAUACCAGACGGCCGCCACUAGGACCGGGAGUGAUGUUCCCAAAUUAAAAUACUCGGCCGCCACUAGGACCGGGUCUGGUAUCU [TrypBX 26 #DoubleAptamer #SwitchBubble] | 244 nM
AAUAAGCGUGGAAGGAGCGUCGUCCAGUGAUGUUGGAGUUAGAUACCAGUGAUGUUGGUUAGGCAGGUAGGUCGCCGCAAAGCUU [Exclusion Arginine B Gf 7] | 96.8 nM
CCUUCCACAGAAGGAUAUCGGAGUGAUGUUCCCAAGCAGACCUCAAAGUGGGUAGCCAGUCAGUUCCGAGAAGGUCUGCAGCGAG [theeternabot_exclusion_KL_FMN_B_26] | 250 nM
AUAGGAGUGAUGUUCCUUAGUUUCUCCGAUACCAGUAUGGAAACAUACCCUUGGCAGCGGUAAACCGCAGAUUAGGAAACUAGUC [Theophylline A K4 2] | 308 nM
GCUUUCCGUGCGGCCGCCACUGAUCUAAGUGAUGUUUAGAUCGCAUUCGAACCGGUUACCCAGAGCAGGACCGGGCACCAGCGCU [theeternabot_exclusion_KL_Trp_B_35] | 97 nM
UGACUGGACUGAAGGAGCGCCACGGUCAUAGACCGAAUAAGGAGUGAUGUUCCACAUAAAAGGCAGGUAGGUCGCAGUCUAGUCU [ArgBS 2 #SwitchBubble #StaticStem] | 121 nM
UGGAGUUGACGAAAAGUCAACUCCUGAGAUACCAGUGACGAAAGUCACCCUUGGCAGCUCACUGCCAGUGAUGUUGGUAUAUAAA [#OpenEnded 4] | 82.6 nM
GCUAUGGUAGGAAGGAGCGCGGACGAUAUUUAUCGAGUGAUGUUCGAUUCAUUAAUUUGAACGCAGGUAGGUCGCCUACUAUAGC [Arginine B K4 29] | 138 nM
AAGGGCCGGGCGGCCGCCACUGGUCGUGUACACGUACUAACCAGUGAUGUUGGUAUAGUACGCGACAGGACCGGGCCCGGCCCAA [Exclusion - Tryptophan B (Freestyle 30)] | 405 nM
AUUUUUUUGUCAGGAUAUUAGUGUUGGUUUGGUUUGUUAGUGAUGUUGAUAUUUGUUUUAUGUAUUUAAGAAGGGAUUUAGAUGU [zaahullin] | 428 nM
CGGAUGUAGUGAUGUUAUAUUAGAUGUAGACGAGGACCGGUACGGCCGCCACUCGUGAUGGCUGCUAGCACGUUUCGAGGUUUGC [ExTryptoA.Cp] | 515 nM
UGAUACCAGACGGCCGCCACUGGGACCGGGAGUGAUGUUCCGAAAAUUAAAUGCUCGGCCGCCACUAGGACCGGGUCUGGUAUCU [TrypBX 29 #DoubleAptamer #SwitchBubble] | 727 nM
UGUGUUGUAUGACGGUUUGUCACUUAGUAUUAGGAUAUAUAAACAAAUAGAAGGGAUGGCGGAGUGAUGUUCCGCCGGCCGCCAU [FMN A Exl V10] | 92.3 nM
AGGGUAAGGCGUUAACAUGACACCUGGGAAGGAGCGCGGUACACCGCAGGUAGGUCGCCCAGUGAUGUUGGGUGAUUGUAUGAGU [KL-XArg-A24] | 149 nM
GAUUGUGAUGGAAACAUCGCAAUCUCUGAAGGAGCGCGUGAAAACGCAGGUAGGUCGCAGGACGACAAAGACAGUGAUGUUGUCG [Ex Arginine A K4 2] | 446 nM
UCGGACCCUGGAGGAUAUGAGUCGAGUGAUGUUCGGCGGUCCAUGCUGGUGCGGCGUUAUGCCCUUUUAGAAGGCCAGGGUCCGA [#2 Exclusion - FMN B Attempt #12 (HarryS)] | 220 nM
CCAUCGCUAUUCGAUACCAGUCAGGAGGUCUAUGACCUCCUAAUGGAGUGAUGUUCCUUAGACCCUUGGCAGCGAAUAGUGAUGG [#01 K4 Theophylline B Same State] | 509 nM
CUCUGCUUCCCAGGGCUAGUGAUGUUAGCCCGAGGACCGGUACGGCCGCCACUCGAGUUAAGCAUCGACCGUGAAUGUUCGAAGC [theeternabot_exclusion_KL_Trp_A_48] | 138 nM
UGAUAGGACAGAAGGAGCGGAAUGCUGUCCAAAAGGACAGCAAAUAUAAAAGGAGUGAUGUUCCAGGUAGGUCGCUGUCCUAUCU [ArgBX 20 #SwitchBubble #StaticStem] | 271 nM
